The target of experiment [1] is T1, σR (residues 5-227) (Streptomyces coelicolor, UniProt Q7AKG9 5-227).
T1 construct: ECF sigma factor σR (SigR) of Streptomyces coelicolor; residues 5-227 subcloned into pET21a with a C-terminal stop codon for tagless expression; also called sigma factor σR; SigR; source: E. coli BL21(DE3), purified without tags (ammonium sulfate precipitation, Q-Sepharose, Hi-Load S75)
Briefly: ITC; without zinc (-); direct titration; 35 °C, 50 mM Tris pH 7.5, 100 mM NaCl, 2 mM DTT; single binding site model. The following applies: both partners purified. A general note: Isothermal titration calorimetry measures the heat released or taken up as one component is titrated into another.

Experiment [2] deals with T1, σR (residues 5-227). Put plainly: ITC; with zinc (+); 35 °C, 50 mM Tris pH 7.5, 100 mM NaCl, 2 mM DTT; the table does not tell whether this sub-nanomolar value came from a direct or a competition titration. The following applies: both partners purified.

B1: RsrA* (natural protein, Streptomyces coelicolor, UniProt Q7AKG8 1-105, looked up)
chain: MSAGEPHETDCSEILDHLYEFLDKEMPDSDAVKFEHHFEECSPCLEKYGLEQAVKKLVKRAAGQDDVPGDLRAKVMGRLDLIRSGQSVPEHDVAAAPSSSAPQES
notes: also called RsrA*red.Zn2+; source: E. coli BL21(DE3) pLysS, purified by a His-tag that was removed by thrombin; not shown: His tag, N-terminal, cleaved
For B1, the Kd with σR (residues 5-227) [1] worked out at 183 nM; with σR (residues 5-227) [2], 0.23 nM.

As usually defined, the Kd is the constant that tells how readily two partners part at equilibrium.

For the origin of these results see article PMC4960319, “The anti-sigma factor RsrA responds to oxidative stress by reburying its hydrophobic core” (Nature Communications, 2016).
